Assay results from patent publication US11135246B2, “Peptides and combination of peptides for use in immunotherapy against leukemias and other cancers” (Immatics Biotechnologies GmbH, priority 2017, dated 2021).

Target: HLA-A*24:02 (Homo sapiens, UniProt P04439, D101N/D140Y/D185E/E176V/E190D/F33S/G103R/G107R/I119L/I121M/I306V/K335N/L105A/L180Q/L300P/N151K/N90K/Q86E/Q94H/R106L/R138H/R89G/T104I/T345S/V100E/W191G/Y123F)
Experiment: MHC binding assay, UV-ligand exchange with β2m ELISA, HLA-A*24:02
Details: peptide exchange yield
Source text: (§1) Candidate peptides for T cell based therapies according to the present invention were further tested for their MHC binding capacity (affinity). The individual peptide-MHC complexes were produced by UV-ligand exchange, where a UV-sensitive peptide is cleaved upon UV-irradiation, and exchanged with the peptide of interest as analyzed. Only peptide candidates that can effectively bind and stabilize the peptide-receptive MHC molecules prevent dissociation of the MHC complexes. To determine the yield of the exchange reaction, an ELISA was performed based on the detection of the light chain (β2m) of stabilized MHC complexes. The assay was performed as generally described in Rodenko et al. (Rodenko et al., 2006).
(§2) 96 well MAXISorp plates (NUNC) were coated over night with 2 ug/ml streptavidin in PBS at room temperature, washed 4× and blocked for 1 h at 37° C. in 2% BSA containing blocking buffer. Refolded HLA-A*02:01/MLA-001 monomers served as standards, covering the range of 15-500 ng/ml. Peptide-MHC monomers of the UV-exchange reaction were diluted 100-fold in blocking buffer. Samples were incubated for 1 h at 37° C., washed four times, incubated with 2 ug/ml HRP conjugated anti-β2m for 1 h at 37° C., washed again and detected with TMB solution that is stopped with […]. Absorption was measured at 450 nm. Candidate peptides that show a high exchange yield (preferably higher than 50%, most preferred higher than 75%) are generally preferred for a generation and production of antibodies or fragments thereof, and/or T cell receptors or fragments thereof, as they show sufficient avidity to the MHC molecules and prevent dissociation of the MHC complexes.

Substance | Peptide exchange
53 (KYIEYYLVL; listed as Homo sapiens) [compound 53] | “++++” (>75% = ++++)
55 (IFVARLYYF; listed as Homo sapiens) [compound 55] | “++++” (>75% = ++++)
56 (KYSSGFRNI; listed as Homo sapiens) [compound 56] | “+++” (>50 = +++)
57 (RFPPTPPLF; listed as Homo sapiens) [compound 57] | “++++” (>75% = ++++)
58 (KYLADLPTL; listed as Homo sapiens) [compound 58] | “++++” (>75% = ++++)
61 (IFKEHNFSF; listed as Homo sapiens) [compound 61] | “++++” (>75% = ++++)
62 (YYLSHLERI; listed as Homo sapiens) [compound 62] | “++++” (>75% = ++++)
63 (IYFSNTHFF; listed as Homo sapiens) [compound 63] | “+++” (>50 = +++)
64 (SFQSKATVF; listed as Homo sapiens) [compound 64] | “++” (>20% = ++)
67 (VFLPSEGFNF; listed as Homo sapiens) [compound 67] | “+++” (>50 = +++)
68 (LYQDRFDYL; listed as Homo sapiens) [compound 68] | “++++” (>75% = ++++)
69 (EYNTIKDKF; listed as Homo sapiens) [compound 69] | “+++” (>50 = +++)
70 (LYSDIGHLL; listed as Homo sapiens) [compound 70] | “+++” (>50 = +++)
71 (RYLGKNWSF; listed as Homo sapiens) [compound 71] | “++++” (>75% = ++++)
72 (TYVENLRLL; listed as Homo sapiens) [compound 72] | “+++” (>50 = +++)
73 (TYPQLEGFKF; listed as Homo sapiens) [compound 73] | “++++” (>75% = ++++)
74 (SYADNILSF; listed as Homo sapiens) [compound 74] | “++++” (>75% = ++++)
75 (RFYLLTEHF; listed as Homo sapiens) [compound 75] | “+++” (>50 = +++)
222 (RYLDEINLL; listed as Homo sapiens) [compound 222] | “+++” (>50 = +++)

Test system: CD8+ T cells
Experiment: In vitro T-cell priming assay (immunogenicity): repeated stimulation of CD8+ T cells with aAPCs loaded with peptide/MHC complexes and anti-CD28, pMHC multimer readout
Assay type: cell-based, human
Details: Table 10a; healthy donors; three stimulation cycles; HLA-A*02 (278), HLA-A*24 (279)
Method: In order to obtain information regarding the immunogenicity of the TUMAPs of the present invention, the inventors performed investigations using an in vitro T-cell priming assay based on repeated stimulations of CD8+ T cells with artificial antigen presenting cells (aAPCs) loaded with peptide/MHC complexes and anti-CD28 antibody. […]
Generation of pMHC/anti-CD28 coated beads, T-cell stimulations and readout was performed in a highly defined in vitro system using four different pMHC molecules per stimulation condition and 8 different pMHC molecules per readout condition. […]
Stimulations were initiated in 96-well plates by co-incubating […] CD8+ T cells with 2×10^5 washed coated beads in 200 μl TCM supplemented with 5 ng/ml IL-12 (PromoCell) for 3 days at 37° C. […] For the pMHC multimer readout using 8 different pMHC molecules per condition, a two-dimensional combinatorial coding approach was used as previously described (Andersen et al., 2012) with minor modifications encompassing coupling to 5 different fluorochromes. […] Peptide specific cells were calculated as percentage of total CD8+ cells. […] In vitro priming of specific multimer+CD8+ lymphocytes was detected by comparing to negative control stimulations.

Substance | Wells positive [%]
278 (YLDRKLLTL; listed as Homo sapiens) [compound 278] | ++++ (>=70% = ++++)
279 (LYIDRPLPYL; listed as Homo sapiens) [compound 279] | ++++ (>=70% = ++++)

Target: HLA-A*02:01 (Homo sapiens, UniProt P04439, D140Y/D185E/D98H/E176V/E277Q/G131W/G231S/I119V/I121R/I166T/I218V/L300P/L318F/N151K/N90K/P208A/P217A/Q86G/Q94H/R138H/R169H/T345S)
Experiment: MHC binding assay, UV-ligand exchange with β2m ELISA, HLA-A*02:01
Details: peptide exchange yield
Source text: as §1, §2

Substance | Peptide exchange
27 (RLIAKEMNI; listed as Homo sapiens) [compound 27] | “++++” (>75% = ++++)
197 (SLADVHIEV; listed as Homo sapiens) [compound 197] | “++++” (>75% = ++++)
198 (KLLGYDVHV; listed as Homo sapiens) [compound 198] | “+++” (>50 = +++)
199 (AMPDSPAEV; listed as Homo sapiens) [compound 199] | “++++” (>75% = ++++)
200 (VMLQINPKL; listed as Homo sapiens) [compound 200] | “+++” (>50 = +++)
201 (ILAAVETRL; listed as Homo sapiens) [compound 201] | “+++” (>50 = +++)
203 (FLLPKVQSI; listed as Homo sapiens) [compound 203] | “++++” (>75% = ++++)
204 (FLLPKVQSIQL; listed as Homo sapiens) [compound 204] | “+++” (>50 = +++)
205 (FLINTNSEL; listed as Homo sapiens) [compound 205] | “++++” (>75% = ++++)
206 (SLMDLQERL; listed as Homo sapiens) [compound 206] | “+++” (>50 = +++)
207 (KLSDNILKL; listed as Homo sapiens) [compound 207] | “++++” (>75% = ++++)
